Measurements: paper PMC12504095

Key:
[1] = target: Streptococcus pyogenes alpha-enolase (SEn) (S. pyogenes strain AP53) (UniProt P69949); assay: cryo-EM structure; SEn reconstituted in DOPG vesicles, extruded to small unilamellar vesicles; octamer in the bilayer
[2] = target: Streptococcus pyogenes alpha-enolase (SEn) (S. pyogenes strain AP53) (UniProt P69949); assay: flow cytometry on DOPG vesicles; SEn-constituted DOPG vesicles (BSA-blocked) incubated with 0.8 uM tPA in PBS for 1 h; mouse anti-tPA and Alexa Fluor 488 anti-mouse IgG
[3] = target: Streptococcus pyogenes alpha-enolase (SEn) (S. pyogenes strain AP53) (UniProt P69949); assay: SPR; SEn immobilised on CM5 chip; tPA analyte 0-2000 nM in HBS-EP+ pH 7.4; 10 uL/min, 600 s association, 300 s dissociation; affinity (steady-state) fit

In the case of “Streptococcus pyogenes alpha-enolase (SEn) (from UniProt P69949 1-435) (enzyme)”, the stoichiometry N [1] is reported as 8.
“recombinant human tissue-type plasminogen activator (tPA) (enzyme)” was tested, and the percent DOPG-SEn-tPA complex (FITC-positive vesicles) [2] was 70% and the Kd [3] was 161 nM.
